The record followed here is publication PMC7245740, “Hydrogen peroxide-producing pyruvate oxidase from Lactobacillus delbrueckii is catalytically activated by phosphotidylethanolamine” (BMC Microbiology, 2020).

For one assay, the target named is T1, Δ34 Pox (Lactobacillus delbrueckii, UniProt Q1G7Z6).
T1 construct: gene pox1; C-terminal truncation lacking the last 34 residues, C-terminal His6, vector pFLAG-CTC, expressed in E. coli LOBSTR
T1 sequence (Q1G7Z6 1-582): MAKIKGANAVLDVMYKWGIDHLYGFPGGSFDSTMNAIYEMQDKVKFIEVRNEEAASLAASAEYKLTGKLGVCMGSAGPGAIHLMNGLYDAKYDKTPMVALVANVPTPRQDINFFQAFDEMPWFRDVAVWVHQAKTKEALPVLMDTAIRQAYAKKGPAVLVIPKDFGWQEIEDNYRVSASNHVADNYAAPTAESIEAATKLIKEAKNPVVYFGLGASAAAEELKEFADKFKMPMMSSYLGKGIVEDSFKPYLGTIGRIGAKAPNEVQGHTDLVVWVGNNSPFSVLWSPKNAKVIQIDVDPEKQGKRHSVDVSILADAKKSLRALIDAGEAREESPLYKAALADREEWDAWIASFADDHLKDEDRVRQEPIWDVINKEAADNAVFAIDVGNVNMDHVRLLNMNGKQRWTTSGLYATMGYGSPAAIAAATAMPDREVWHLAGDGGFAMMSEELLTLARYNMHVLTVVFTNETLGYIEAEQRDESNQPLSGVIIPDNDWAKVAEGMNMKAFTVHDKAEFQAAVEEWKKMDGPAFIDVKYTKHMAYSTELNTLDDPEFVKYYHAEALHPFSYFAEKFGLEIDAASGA
The assay can be described thus: fold activity relative to no phospholipid, same coupled assay. The following applies: activator; 50 mM pyruvate, 50 mM phosphate, 15 μM FAD, 300 μM TPP, pH 5.6, 25 °C; lipid suspension. The format is biochemical.

In assay [1] the target is Pyruvate oxidase (Pox) from Lactobacillus delbrueckii strain STYM1 (Lactobacillus delbrueckii STYM1). As to the kind of experiment: SEC; Superdex 200, 20 mM Bis-Tris pH 6, 150 mM NaCl, 0.5 mL/min; 840 ug purified Pox pre-incubated with 50 mM pyruvate, 300 uM TPP, 15 uM FAD for 10 min at room temperature; molecular weight from a standard curve of protein standards. (SEC sorts molecules by how far they enter the pores of the column.)

For assay [2] the target is unchanged. The assay can be described thus: non-reducing SDS-PAGE; Coomassie stain of gel filtration fractions and of purified Pox after SDS-PAGE under non-reducing conditions; disulfide-linked dimer.

Values joined by “and” are separate entries in the source; they are usually repeats but may differ in a detail not shown here. Identical values can stand only once.

For `CCCCCCCC/C=C\CCCCCCCC(=O)O[C@H](COC(=O)CCCCCCCCCCCCCCC)COP(=O)(O)OCCN` [phosphotidylethanolamine (16:0–18:1)], the fold activity at Δ34 Pox is ~ 2 fold.
Take “Pyruvate oxidase (Pox) from Lactobacillus delbrueckii strain STYM1 (enzyme)”: the stoichiometry N in assay [1] was 10 and 5; in assay [2], 2.

What is called stoichiometry N is the number of molecules, sites or subunits per partner or assembly.
